According to article PMC8266594 (Nucleic Acids Research, 2021):

Target: the molecule itself
Assay: SAXS

B1: RnlAΔ1–91 (TBP2-HEPN) truncated RnlA, N-terminally His-tagged (domain or fragment, Escherichia coli, UniProt P52129 92-357, looked up)
chain: INPAEFEQVNMVLQGFVETSVLPVLELSADESHIEFREHSRNAHTVVWKIISTSYQDELTVSLHITTGKLQIQGRPLSCYRVFTFNLAALLDLQGLEKVLIRQEDGKANIVQQEVARTYLQTVMADAYPHLHVTAEKLLVSGLCVKLAAPDLPDYCMLLYPELRTIEGVLKSKMSGLGMPVQQPAGFGTYFDKPAAHYILKPQFAATLRPEQINIISTAYTFFNVERHSLFHMETVVDASRMISDMARLMGKATRAWGIIKDLYIV
**Q.** Which “stoichiometry N” value does the source give for B1 here?
**A.** The value was 2.

B2: His-RnlA (wild-type RnlA toxin, N-terminally His-tagged) (enzyme)
chain: MTIRSYKNLNLVRANIETESRQFIENKNYSIQSIGPMPGSRAGLRVVFTRPGVNLATVDIFYNGDGSTTIQYLTGANRSLGQELADHLFETINPAEFEQVNMVLQGFVETSVLPVLELSADESHIEFREHSRNAHTVVWKIISTSYQDELTVSLHITTGKLQIQGRPLSCYRVFTFNLAALLDLQGLEKVLIRQEDGKANIVQQEVARTYLQTVMADAYPHLHVTAEKLLVSGLCVKLAAPDLPDYCMLLYPELRTIEGVLKSKMSGLGMPVQQPAGFGTYFDKPAAHYILKPQFAATLRPEQINIISTAYTFFNVERHSLFHMETVVDASRMISDMARLMGKATRAWGIIKDLYIV
**Q.** How did the “stoichiometry N” value turn out when B2 was run?
**A.** Its value is 2.

B3: R255A RnlA, N-terminally His-tagged (enzyme, Escherichia coli, UniProt P52129 1-357, looked up)
chain: MTIRSYKNLNLVRANIETESRQFIENKNYSIQSIGPMPGSRAGLRVVFTRPGVNLATVDIFYNGDGSTTIQYLTGANRSLGQELADHLFETINPAEFEQVNMVLQGFVETSVLPVLELSADESHIEFREHSRNAHTVVWKIISTSYQDELTVSLHITTGKLQIQGRPLSCYRVFTFNLAALLDLQGLEKVLIRQEDGKANIVQQEVARTYLQTVMADAYPHLHVTAEKLLVSGLCVKLAAPDLPDYCMLLYPELATIEGVLKSKMSGLGMPVQQPAGFGTYFDKPAAHYILKPQFAATLRPEQINIISTAYTFFNVERHSLFHMETVVDASRMISDMARLMGKATRAWGIIKDLYIV
**Q.** Which “stoichiometry N” value does the source give for B3 here?
**A.** Its value is 2.

B4: D245R RnlA, N-terminally His-tagged (enzyme, Escherichia coli, UniProt P52129 1-357, looked up)
chain: MTIRSYKNLNLVRANIETESRQFIENKNYSIQSIGPMPGSRAGLRVVFTRPGVNLATVDIFYNGDGSTTIQYLTGANRSLGQELADHLFETINPAEFEQVNMVLQGFVETSVLPVLELSADESHIEFREHSRNAHTVVWKIISTSYQDELTVSLHITTGKLQIQGRPLSCYRVFTFNLAALLDLQGLEKVLIRQEDGKANIVQQEVARTYLQTVMADAYPHLHVTAEKLLVSGLCVKLAAPDLPRYCMLLYPELRTIEGVLKSKMSGLGMPVQQPAGFGTYFDKPAAHYILKPQFAATLRPEQINIISTAYTFFNVERHSLFHMETVVDASRMISDMARLMGKATRAWGIIKDLYIV
**Q.** How did the “stoichiometry N” value turn out when B4 was run?
**A.** Its value is 2.
